In patent US20250262210A1 (TRUSTEES OF COLUMBIA UNIVERSITY IN THE CITY OF NEW YORK, published 2025):

Experiments:
Experiment in all cases: IP/MS, LZTR1 R810W-FLAG, U87
DPP9 = DPP9 (human, UniProt Q86TI2 2-863, limits assumed)
Summary of the method: (§1)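 Read-out: spectral counts from LC-MS/MS (Orbitrap Fusion) after MaxQuant identification. Variable modifications were Met oxidation, protein N-terminal acetylation and N/Q deamidation.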

FKBP15 = biological target: T1, FKBP15 (human, UniProt Q5T1M5 1-1219, limits assumed)
T1 sequence (looked up): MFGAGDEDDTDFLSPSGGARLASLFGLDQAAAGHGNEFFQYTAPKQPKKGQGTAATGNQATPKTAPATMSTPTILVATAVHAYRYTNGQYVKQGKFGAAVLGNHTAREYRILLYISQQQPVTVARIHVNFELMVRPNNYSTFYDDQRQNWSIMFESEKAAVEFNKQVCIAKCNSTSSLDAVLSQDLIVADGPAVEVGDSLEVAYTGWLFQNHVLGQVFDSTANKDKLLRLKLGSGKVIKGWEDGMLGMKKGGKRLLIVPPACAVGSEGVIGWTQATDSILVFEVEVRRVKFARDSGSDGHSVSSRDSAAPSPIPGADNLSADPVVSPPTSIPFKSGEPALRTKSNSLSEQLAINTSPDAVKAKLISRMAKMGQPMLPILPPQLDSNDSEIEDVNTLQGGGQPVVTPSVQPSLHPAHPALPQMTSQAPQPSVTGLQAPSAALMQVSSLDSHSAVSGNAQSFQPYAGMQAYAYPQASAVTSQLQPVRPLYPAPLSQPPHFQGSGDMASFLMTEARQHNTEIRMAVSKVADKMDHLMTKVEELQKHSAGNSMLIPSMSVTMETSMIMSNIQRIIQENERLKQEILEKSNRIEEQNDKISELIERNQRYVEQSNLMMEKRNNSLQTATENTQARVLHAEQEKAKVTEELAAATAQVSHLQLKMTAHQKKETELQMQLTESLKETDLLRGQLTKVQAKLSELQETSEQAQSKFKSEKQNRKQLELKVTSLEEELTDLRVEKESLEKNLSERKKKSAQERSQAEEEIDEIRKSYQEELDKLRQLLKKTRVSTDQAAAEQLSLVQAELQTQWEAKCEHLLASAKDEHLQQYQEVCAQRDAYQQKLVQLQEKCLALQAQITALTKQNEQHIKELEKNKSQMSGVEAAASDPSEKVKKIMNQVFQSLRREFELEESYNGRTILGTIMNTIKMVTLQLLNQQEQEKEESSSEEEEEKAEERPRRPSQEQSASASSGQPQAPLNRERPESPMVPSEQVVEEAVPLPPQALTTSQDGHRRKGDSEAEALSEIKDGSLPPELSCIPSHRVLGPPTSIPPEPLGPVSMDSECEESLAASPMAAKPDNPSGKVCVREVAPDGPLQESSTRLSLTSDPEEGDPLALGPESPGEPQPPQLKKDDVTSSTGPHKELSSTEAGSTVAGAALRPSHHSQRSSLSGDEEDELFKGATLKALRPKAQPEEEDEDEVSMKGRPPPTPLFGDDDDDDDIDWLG
Summary of the method: as §1

MED24 = biological target: T2, MED24 (human, UniProt O75448 1-989, limits assumed)
T2 sequence (looked up): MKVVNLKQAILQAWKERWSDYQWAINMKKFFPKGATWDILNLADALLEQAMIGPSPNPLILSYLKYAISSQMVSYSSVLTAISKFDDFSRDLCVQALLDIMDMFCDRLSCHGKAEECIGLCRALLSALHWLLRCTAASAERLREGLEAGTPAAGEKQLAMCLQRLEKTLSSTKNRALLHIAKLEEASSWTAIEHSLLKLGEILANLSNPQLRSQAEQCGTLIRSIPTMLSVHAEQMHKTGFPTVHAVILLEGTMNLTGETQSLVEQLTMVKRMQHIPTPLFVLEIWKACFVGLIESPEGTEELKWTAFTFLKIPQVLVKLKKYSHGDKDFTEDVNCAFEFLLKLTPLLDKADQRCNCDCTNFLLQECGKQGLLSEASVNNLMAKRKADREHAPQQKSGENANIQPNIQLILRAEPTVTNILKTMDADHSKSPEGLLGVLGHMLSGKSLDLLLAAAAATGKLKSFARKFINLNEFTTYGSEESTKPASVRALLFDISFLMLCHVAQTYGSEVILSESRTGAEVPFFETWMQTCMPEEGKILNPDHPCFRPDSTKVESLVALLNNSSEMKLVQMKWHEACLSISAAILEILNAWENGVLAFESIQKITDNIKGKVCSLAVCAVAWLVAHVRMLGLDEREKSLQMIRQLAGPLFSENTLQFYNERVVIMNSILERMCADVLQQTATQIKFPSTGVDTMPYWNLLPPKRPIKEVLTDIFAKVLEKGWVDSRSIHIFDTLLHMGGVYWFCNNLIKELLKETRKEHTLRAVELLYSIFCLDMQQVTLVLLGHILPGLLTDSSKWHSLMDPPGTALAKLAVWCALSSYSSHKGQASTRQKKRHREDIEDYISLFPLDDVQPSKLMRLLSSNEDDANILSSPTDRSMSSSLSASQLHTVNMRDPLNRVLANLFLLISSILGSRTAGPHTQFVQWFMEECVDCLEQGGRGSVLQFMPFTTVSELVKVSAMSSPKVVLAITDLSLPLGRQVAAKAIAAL
Summary of the method: as §1

CA9 = CA9 (human, UniProt Q16790 38-459)
Summary of the method: as §1

Measured: binding result

DPP9, sequence (Q86TI2 2-863 limits assumed): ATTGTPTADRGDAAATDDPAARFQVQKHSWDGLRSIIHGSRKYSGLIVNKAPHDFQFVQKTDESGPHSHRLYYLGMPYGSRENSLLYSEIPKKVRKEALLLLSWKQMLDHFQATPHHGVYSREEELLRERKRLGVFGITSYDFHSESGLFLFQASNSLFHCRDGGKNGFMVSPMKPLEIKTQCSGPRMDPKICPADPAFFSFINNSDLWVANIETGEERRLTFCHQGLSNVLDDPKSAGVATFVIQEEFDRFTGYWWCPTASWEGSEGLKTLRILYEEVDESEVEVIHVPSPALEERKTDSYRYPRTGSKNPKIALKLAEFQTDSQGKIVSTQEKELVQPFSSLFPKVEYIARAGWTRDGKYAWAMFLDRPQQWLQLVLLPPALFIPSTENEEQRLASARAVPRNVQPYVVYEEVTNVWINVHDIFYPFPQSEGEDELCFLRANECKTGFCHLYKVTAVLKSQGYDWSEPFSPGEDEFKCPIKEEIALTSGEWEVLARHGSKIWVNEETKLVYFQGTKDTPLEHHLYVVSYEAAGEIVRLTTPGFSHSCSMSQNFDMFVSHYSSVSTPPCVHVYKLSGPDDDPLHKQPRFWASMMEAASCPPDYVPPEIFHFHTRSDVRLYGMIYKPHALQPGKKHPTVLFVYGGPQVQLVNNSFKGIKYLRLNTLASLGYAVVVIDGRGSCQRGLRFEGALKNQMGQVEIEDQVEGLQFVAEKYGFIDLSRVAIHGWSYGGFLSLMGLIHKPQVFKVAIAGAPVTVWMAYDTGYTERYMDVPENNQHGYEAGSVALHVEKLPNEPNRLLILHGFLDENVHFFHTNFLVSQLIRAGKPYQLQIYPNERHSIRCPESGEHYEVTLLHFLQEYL

B1: LZTR1 R810W-FLAG (other, human, UniProt Q8N653 1-840, looked up)
chain: MAGPGSTGGQIGAAALAGGARSKVAPSVDFDHSCSDSVEYLTLNFGPFETVHRWRRLPPCDEFVGARRSKHTVVAYKDAIYVFGGDNGKTMLNDLLRFDVKDCSWCRAFTTGTPPAPRYHHSAVVYGSSMFVFGGYTGDIYSNSNLKNKNDLFEYKFATGQWTEWKIEGRLPVARSAHGATVYSDKLWIFAGYDGNARLNDMWTIGLQDRELTCWEEVAQSGEIPPSCCNFPVAVCRDKMFVFSGQSGAKITNNLFQFEFKDKTWTRIPTEHLLRGSPPPPQRRYGHTMVAFDRHLYVFGGAADNTLPNELHCYDVDFQTWEVVQPSSDSEVGGAEVPERACASEEVPTLTYEERVGFKKSRDVFGLDFGTTSAKQPTQPASELPSGRLFHAAAVISDAMYIFGGTVDNNIRSGEMYRFQFSCYPKCTLHEDYGRLWESRQFCDVEFVLGEKEECVQGHVAIVTARSRWLRRKITQARERLAQKLEQEAAPVPREAPGVAAGGARPPLLHVAIREAEARPFEVLMQFLYTDKIKYPRKGHVEDVLLIMDVYKLALSFQLCRLEQLCRQYIEASVDLQNVLVVCESAARLQLSQLKEHCLNFVVKESHFNQVIMMKEFERLSSPLIVEIVRRKQQPPPRTPLDQPVDIGTSLIQDMKAYLEGAGAEFCDITLLLDGHPRPAHKAILAARSSYFEAMFRSFMPEDGQVNISIGEMVPSRQAFESMLRYIYYGEVNMPPEDSLYLFAAPYYYGFYNNRLQAYCKQNLEMNVTVQNVLQILEAADKTQALDMKRHCLHIIVHQFTKVSKLPTLWSLSQQLLLDIIDSLASHISDKQCAELGADI
notes: Stably expressed in U87 cells by lentivirus; also called LZTR1-FLAG-R810W; LZTR1 RW; not shown: FLAG tag
binds: all assays above
